# From patent publication US20210171647A1 (WUXI BIOLOGICS SHANGHAI, published 2021)
# Substitutions are numbered along the chain they refer to.
# T1: human OX40-ECD.His T148A (human, UniProt P43489 29-214)
# T1 construct: extracellular domain; not shown: C-terminal His-tag
# T1 sequence (looked up): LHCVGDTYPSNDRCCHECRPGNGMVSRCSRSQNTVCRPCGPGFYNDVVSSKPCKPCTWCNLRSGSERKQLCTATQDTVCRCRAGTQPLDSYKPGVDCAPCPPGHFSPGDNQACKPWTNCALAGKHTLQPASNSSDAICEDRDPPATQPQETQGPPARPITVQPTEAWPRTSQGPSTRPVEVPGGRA
# T2: human OX40-ECD.His Q156A (human, UniProt P43489 29-214)
# T2 construct: extracellular domain; not shown: C-terminal His-tag
# T2 sequence (looked up): T1 sequence (looked up) with A120T, Q128A
# T3: human OX40-ECD.His R58A (human, UniProt P43489 29-214)
# T3 construct: extracellular domain; not shown: C-terminal His-tag
# T3 sequence (looked up): T1 sequence (looked up) with R30A, A120T
# T4: human OX40-ECD.His G151A (human, UniProt P43489 29-214)
# T4 construct: extracellular domain; not shown: C-terminal His-tag
# T4 sequence (looked up): T1 sequence (looked up) with A120T, G123A
# T5: human OX40-ECD.His H44A (human, UniProt P43489 29-214)
# T5 construct: extracellular domain; not shown: C-terminal His-tag
# T5 sequence (looked up): T1 sequence (looked up) with H16A, A120T
# T6: human OX40-ECD.His N61A (human, UniProt P43489 29-214)
# T6 construct: extracellular domain; not shown: C-terminal His-tag
# T6 sequence (looked up): T1 sequence (looked up) with N33A, A120T
# T7: human OX40-ECD.His V106A (human, UniProt P43489 29-214)
# T7 construct: extracellular domain; not shown: C-terminal His-tag
# T7 sequence (looked up): T1 sequence (looked up) with V78A, A120T
# T8: human OX40-ECD.His Y119A (human, UniProt P43489 29-214)
# T8 construct: extracellular domain; not shown: C-terminal His-tag
# T8 sequence (looked up): T1 sequence (looked up) with Y91A, A120T
# T9: human OX40-ECD.His D170A (human, UniProt P43489 29-214)
# T9 construct: extracellular domain; not shown: C-terminal His-tag
# T9 sequence (looked up): T1 sequence (looked up) with A120T, D142A
# T10: human OX40-ECD.His S77A (human, UniProt P43489 29-214)
# T10 construct: extracellular domain; not shown: C-terminal His-tag
# T10 sequence (looked up): T1 sequence (looked up) with S49A, A120T
# B1: 1.134.9-u1-IgG1L (antibody, V domains shown)
# VH: QVQLQESGPGLVKPSGTLSLTCAVSGGSISSYNWWSWVRQPPGKGLEWIGEIYHGGNTNYNPSLKSRVTMSVDNSKNQFSLKLSSVTAADTAVYYCARAPGDWGGSPYFDFWGQGTLVTVSS
# VL: SSELTQDPAVSVALGQTVRITCQGDNLRTYYASWYQQKPGQAPILLIYGRNKRPSGIPDRFSGSSSGNTASLTITGAQAEDEAAYYCNSRDSSGNPVVFGGGTKLTVL
# notes: fully human IgG1, lambda
# Assays:
# Assay in all cases: ELISA, antibody coated, OX40-ECD.His mutant supernatant; relative to silent alanine substitutions;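 note: captured OX40 mutant protein detected with HRP-labelled anti-His antibody, absorbance read-out, scaled to the mean signal of control mutants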
# human OX40-ECD.His T148A = molecular target: T1, human OX40-ECD.His T148A
# Protocol: (§1) After interacting with the supernatant that contains quantified OX40 mutants or human OX40-ECD.His protein, HRP conjugated anti-His antibody (1:5000, GenScript-A00612, CHN) was added as detection antibody. Absorbance was normalized according to the average of control mutants.
# human OX40-ECD.His Q156A = molecular target: T2, human OX40-ECD.His Q156A
# Protocol: as §1
# human OX40-ECD.His R58A = molecular target: T3, human OX40-ECD.His R58A
# Protocol: as §1
# human OX40-ECD.His G151A = molecular target: T4, human OX40-ECD.His G151A
# Protocol: as §1
# human OX40-ECD.His H44A = molecular target: T5, human OX40-ECD.His H44A
# Protocol: as §1
# human OX40-ECD.His N61A = molecular target: T6, human OX40-ECD.His N61A
# Protocol: as §1
# human OX40-ECD.His V106A = molecular target: T7, human OX40-ECD.His V106A
# Protocol: as §1
# human OX40-ECD.His Y119A = molecular target: T8, human OX40-ECD.His Y119A
# Protocol: as §1
# human OX40-ECD.His D170A = molecular target: T9, human OX40-ECD.His D170A
# Protocol: as §1
# human OX40-ECD.His S77A = molecular target: T10, human OX40-ECD.His S77A
# Protocol: as §1
binder,measurement,setting,value
B1,Fold Change,human OX40-ECD.His T148A,1
same,Fold Change,human OX40-ECD.His Q156A,0.97
same,Fold Change,human OX40-ECD.His R58A,1
same,Fold Change,human OX40-ECD.His G151A,0.742
same,Fold Change,human OX40-ECD.His H44A,1
same,Fold Change,human OX40-ECD.His N61A,0.99
same,Fold Change,human OX40-ECD.His V106A,0.662
same,Fold Change,human OX40-ECD.His Y119A,0.995
same,Fold Change,human OX40-ECD.His D170A,1.01
same,Fold Change,human OX40-ECD.His S77A,0.879
